Columns and labels:
[1] = tested on: GFP-14-3-3β and its binding proteins; experiment: GFP-14-3-3β co-IP with LC-MS/MS label-free quantification, untreated versus PP1c-treated; parameters: species or system human; details: PP1 vs untreated; LFQ intensities, replicates 1-3
GFP-14-3-3β = GFP-14-3-3β co-IP with LC-MS/MS, untreated GFP-14-3-3β versus GFP control (14-3-3 interactome); type: binding, human; details: untreated vs GFP; LFQ intensities, replicates 1-3

Molecule | Difference (log2), PP1 vs untreated [1] [log2] | Difference (log2), untreated vs GFP (GFP-14-3-3β) [log2]
ZAK (protein, UniProt Q9NYL2 2-800, looked up) Mitogen-activated protein …: SSLGASFVQIKFDDLQFFENCGGGSFGSVYRAKWISQDKEVAVKKLLKIEKEAEILSVLSHRNIIQFYGVILEPPNYGIVTEYASLGSLYDYINSNRSEEMDMDHIMTWATDVAKGMHYLHMEAPVKVIHRDLKSRNVVIAADGVLKICDFGASRFHNHTTHMSLVGTFPWMAPEVIQSLPVSETCDTYSYGVVLWEMLTREVPFKGLEGLQVAWLVVEKNERLTIPSSCPRSFAELLHQCWEADAKKRPSFKQIISILESMSNDTSLPDKCNSFLHNKAEWRCEIEATLERLKKLERDLSFKEQELKERERRLKMWEQKLTEQSNTPLLPSFEIGAWTEDDVYCWVQQLVRKGDSSAEMSVYASLFKENNITGKRLLLLEEEDLKDMGIVSKGHIIHFKSAIEKLTHDYINLFHFPPLIKDSGGEPEENEEKIVNLELVFGFHLKPGTGPQDCKWKMYMEMDGDEIAITYIKDVTFNTNLPDAEILKMTKPPFVMEKWIVGIAKSQTVECTVTYESDVRTPKSTKHVHSIQWSRTKPQDEVKAVQLAIQTLFTNSDGNPGSRSDSSADCQWLDTLRMRQIASNTSLQRSQSNPILGSPFFSHFDGQDSYAAAVRRPQVPIKYQQITPVNQSRSSSPTQYGLTKNFSSLHLNSRDSGFSSGNTDTSSERGRYSDRSRNKYGRGSISLNSSPRGRYSGKSQHSTPSRGRYPGKFYRVSQSALNPHQSPDFKRSPRDLHQPNTIPGMPLHPETDSRASEEDSKVSEGGWTKVEYRKKPHRPSPAKTNKERARGDHRGWRNF | -1.506 | 2.661
HNRNPA0 (protein, UniProt Q13151 1-305, looked up) Heterogeneous nuclear …: MENSQLCKLFIGGLNVQTSESGLRGHFEAFGTLTDCVVVVNPQTKRSRCFGFVTYSNVEEADAAMAASPHAVDGNTVELKRAVSREDSARPGAHAKVKKLFVGGLKGDVAEGDLIEHFSQFGTVEKAEIIADKQSGKKRGFGFVYFQNHDAADKAAVVKFHPIQGHRVEVKKAVPKEDIYSGGGGGGSRSSRGGRGGRGRGGGRDQNGLSKGGGGGYNSYGGYGGGGGGGYNAYGGGGGGSSYGGSDYGNGFGGFGSYSQHQSSYGPMKSGGGGGGGGSSWGGRSNSGPYRGGYGGGGGYGGSSF | -1.439 | 3.698
NOP2 (protein, UniProt P46087 1-812, looked up) 28S rRNA …: MGRKLDPTKEKRGPGRKARKQKGAETELVRFLPAVSDENSKRLSSRARKRAAKRRLGSVEAPKTNKSPEAKPLPGKLPKGISAGAVQTAGKKGPQSLFNAPRGKKRPAPGSDEEEEEEDSEEDGMVNHGDLWGSEDDADTVDDYGADSNSEDEEEGEALLPIERAARKQKAREAAAGIQWSEEETEDEEEEKEVTPESGPPKVEEADGGLQINVDEEPFVLPPAGEMEQDAQAPDLQRVHKRIQDIVGILRDFGAQREEGRSRSEYLNRLKKDLAIYYSYGDFLLGKLMDLFPLSELVEFLEANEVPRPVTLRTNTLKTRRRDLAQALINRGVNLDPLGKWSKTGLVVYDSSVPIGATPEYLAGHYMLQGASSMLPVMALAPQEHERILDMCCAPGGKTSYMAQLMKNTGVILANDANAERLKSVVGNLHRLGVTNTIISHYDGRQFPKVVGGFDRVLLDAPCSGTGVISKDPAVKTNKDEKDILRCAHLQKELLLSAIDSVNATSKTGGYLVYCTCSITVEENEWVVDYALKKRNVRLVPTGLDFGQEGFTRFRERRFHPSLRSTRRFYPHTHNMDGFFIAKFKKFSNSIPQSQTGNSETATPTNVDLPQVIPKSENSSQPAKKAKGAAKTKQQLQKQQHPKKASFQKLNGISKGADSELSTVPSVTKTQASSSFQDSSQPAGKAEGIREPKVTGKLKQRSPKLQSSKKVAFLRQNAPPKGTDTQTPAVLSPSKTQATLKPKDHHQPLGRAKGVEKQQLPEQPFEKAAFQKQNDTPKGPQPPTVSPIRSSRPPPAKRKKSQSRGNSQLLLS | -1.5353 | 2.385
ABLIM1 (protein, UniProt O14639 1-778, looked up) Actin-binding LIM protein 1: MPAFLGLKCLGKLCSSEKSKVTSSERTSARGSNRKRLIVEDRRVSGTSFTAHRRATITHLLYLCPKDYCPRGRVCNSVDPFVAHPQDPHHPSEKPVIHCHKCGEPCKGEVLRVQTKHFHIKCFTCKVCGCDLAQGGFFIKNGEYLCTLDYQRMYGTRCHGCGEFVEGEVVTALGKTYHPNCFACTICKRPFPPGDRVTFNGRDCLCQLCAQPMSSSPKETTFSSNCAGCGRDIKNGQALLALDKQWHLGCFKCKSCGKVLTGEYISKDGAPYCEKDYQGLFGVKCEACHQFITGKVLEAGDKHYHPSCARCSRCNQMFTEGEEMYLQGSTVWHPDCKQSTKTEEKLRPTRTSSESIYSRPGSSIPGSPGHTIYAKVDNEILDYKDLAAIPKVKAIYDIERPDLITYEPFYTSGYDDKQERQSLGESPRTLSPTPSAEGYQDVRDRMIHRSTSQGSINSPVYSRHSYTPTTSRSPQHFHRPGNEPSSGRNSPLPYRPDSRPLTPTYAQAPKHFHVPDQGINIYRKPPIYKQHAALAAQSKSSEDIIKFSKFPAAQAPDPSETPKIETDHWPGPPSFAVVGPDMKRRSSGREEDDEELLRRRQLQEEQLMKLNSGLGQLILKEEMEKESRERSSLLASRYDSPINSASHIPSSKTASLPGYGRNGLHRPVSTDFAQYNSYGDVSGGVRDYQTLPDGHMPAMRMDRGVSMPNMLEPKIFPYEMLMVTNRGRNKILREVDRTRLERHLAPEVFREIFGMSIQEFDRLPLWRRNDMKKKAKLF | -1.4799 | 3.166
RIN1 (protein, UniProt Q13671 1-783, looked up) Ras and Rab interactor 1: MESPGESGAGSPGAPSPSSFTTGHLAREKPAQDPLYDVPNASGGQAGGPQRPGRVVSLRERLLLTRPVWLQLQANAAAALHMLRTEPPGTFLVRKSNTRQCQALCMRLPEASGPSFVSSHYILESPGGVSLEGSELMFPDLVQLICAYCHTRDILLLPLQLPRAIHHAATHKELEAISHLGIEFWSSSLNIKAQRGPAGGPVLPQLKARSPQELDQGTGAALCFFNPLFPGDLGPTKREKFKRSFKVRVSTETSSPLSPPAVPPPPVPVLPGAVPSQTERLPPCQLLRRESSVGYRVPAGSGPSLPPMPSLQEVDCGSPSSSEEEGVPGSRGSPATSPHLGRRRPLLRSMSAAFCSLLAPERQVGRAAAALMQDRHTAAGQLVQDLLTQVRAGPEPQELQGIRQALSRARAMLSAELGPEKLLSPKRLEHVLEKSLHCSVLKPLRPILAARLRRRLAADGSLGRLAEGLRLARAQGPGAFGSHLSLPSPVELEQVRQKLLQLLRTYSPSAQVKRLLQACKLLYMALRTQEGEGAGADEFLPLLSLVLAHCDLPELLLEAEYMSELLEPSLLTGEGGYYLTSLSASLALLSGLGQAHTLPLSPVQELRRSLSLWEQRRLPATHCFQHLLRVAYQDPSSGCTSKTLAVPPEASIATLNQLCATKFRVTQPNTFGLFLYKEQGYHRLPPGALAHRLPTTGYLVYRRAEWPETQGAVTEEEGSGQSEARSRGEEQGCQGDGDAGVKASPRDIREQSETTAEGGQGQAQEGPAQPGEPEAEGSRAAEE | -1.475 | 6.141

Second part, led by results:

Difference (log2), PP1 vs untreated [1] [log2] | Molecule | Difference (log2), untreated vs GFP (GFP-14-3-3β) [log2]
-1.398 | NEXN (protein, UniProt Q0ZGT2 1-675, looked up) Nexilin: MNDISQKAEILLSSSKPVPKTYVPKLGKGDVKDKFEAMQRAREERNQRRSRDEKQRRKEQYIREREWNRRKQEIKEMLASDDEEDVSSKVEKAYVPKLTGTVKGRFAEMEKQRQEEQRKRTEEERKRRIEQDMLEKRKIQRELAKRAEQIEDINNTGTESASEEGDDSLLITVVPVKSYKTSGKMKKNFEDLEKEREEKERIKYEEDKRIRYEEQRPSLKEAKCLSLVMDDEIESEAKKESLSPGKLKLTFEELERQRQENRKKQAEEEARKRLEEEKRAFEEARRQMVNEDEENQDTAKIFKGYRPGKLKLSFEEMERQRREDEKRKAEEEARRRIEEEKKAFAEARRNMVVDDDSPEMYKTISQEFLTPGKLEINFEELLKQKMEEEKRRTEEERKHKLEMEKQEFEQLRQEMGEEEEENETFGLSREYEELIKLKRSGSIQAKNLKSKFEKIGQLSEKEIQKKIEEERARRRAIDLEIKEREAENFHEEDDVDVRPARKSEAPFTHKVNMKARFEQMAKAREEEEQRRIEEQKLLRMQFEQREIDAALQKKREEEEEEEGSIMNGSTAEDEEQTRSGAPWFKKPLKNTSVVDSEPVRFTVKVTGEPKPEITWWFEGEILQDGEDYQYIERGETYCLYLPETFPEDGGEYMCKAVNNKGSAASTCILTIESKN | 0.832
-1.41 | LMNB1 (protein, UniProt P20700 2-583, looked up) Lamin-B1: ATATPVPPRMGSRAGGPTTPLSPTRLSRLQEKEELRELNDRLAVYIDKVRSLETENSALQLQVTEREEVRGRELTGLKALYETELADARRALDDTARERAKLQIELGKCKAEHDQLLLNYAKKESDLNGAQIKLREYEAALNSKDAALATALGDKKSLEGDLEDLKDQIAQLEASLAAAKKQLADETLLKVDLENRCQSLTEDLEFRKSMYEEEINETRRKHETRLVEVDSGRQIEYEYKLAQALHEMREQHDAQVRLYKEELEQTYHAKLENARLSSEMNTSTVNSAREELMESRMRIESLSSQLSNLQKESRACLERIQELEDLLAKEKDNSRRMLTDKEREMAEIRDQMQQQLNDYEQLLDVKLALDMEISAYRKLLEGEEERLKLSPSPSSRVTVSRASSSRSVRTTRGKRKRVDVEESEASSSVSISHSASATGNVCIEEIDVDGKFIRLKNTSEQDQPMGGWEMIRKIGDTSVSYKYTSRYVLKAGQTVTIWAANAGVTASPPTDLIWKNQNSWGTGEDVKVILKNSQGEEVAQRSTVFKTTIPEEEEEEEEAAGVVVEEELFHQQGTPRASNRSC | 2.359
